Where two headings read alike, the source gives them in different places. [ ]: non-standard residue; d: D form. Nle = CCCC[C@H](N)C(=O)O

The values that follow come from patent US20150119341A1 (PALATIN TECHNOLOGIES, published 2015).

The target of assay [1] is T1, recombinant human melanocortin-1 receptor (hMCR-1a) in membrane homogenates of HEK-293 cells (human, UniProt Q01726 1-317).
T1 construct: whole, on cells; Used as membrane homogenates, not intact cells; also called hMCR-la; MC-1
As to the kind of experiment: competitive inhibition of [I125]-NDP-alpha-MSH, hMCR-1 HEK-293 membranes. The procedure: (§1) A competitive inhibition binding assay was performed using membrane homogenates prepared from HEK-293 cells that express recombinant hMCR-la or hMCR-4 (in each instance where the h prefix refers to human), or alternatively membrane homogenates from B16-F10 mouse melanoma cells containing endogenous murine MCR-1. In the examples that follow, all MCR-1 and MCR-4 values are for human recombinant receptors, unless otherwise noted. Assays were performed in 96 well polypropylene round-bottom plates (VWR catalog number 12777-030).
(§2) Membrane homogenates were incubated with 0.1 nM [I¹²⁵]-NDP-α-MSH (Perkin Elmer) and increasing concentrations of test peptides of the present invention in buffer containing 25 mM HEPES buffer (pH 7.5) with 100 mM NaCl, 2 mM CaCl₂, 2 mM MgCl₂, 0.3 mM 1,10-phenanthroline, and 0.2% bovine serum albumin. After incubation for 90 minutes at 37° C., the assay mixture was filtered onto GF/B Unifilter plates (Perkin-Elmer catalog number 6005177) and washed with 3 mL of ice-cold buffer per well. Filters were air dried and 35 μL of scintillation cocktail added to each well. Plates were counted in a Microbeta counter for bound radioactivity. […] Maximal specific binding (100%) was defined as the difference in radioactivity (cpm) bound to cell membranes in the absence and presence of 1 μM NDP-α-MSH. Each assay was conducted in duplicate and the actual mean values are described, with results less than 0% reported as 0%. Ki values for peptides of the present invention were determined using Graph-Pad PRISM® curve-fitting software.

Assay [2] concerns the target T2, human melanocortin-1 receptor (hMCR-1) expressed by the human melanoma cell line HBL (human, UniProt Q01726 1-317). As to the kind of experiment: cell-based or functional assay.
For assay [3], the target named is T3, recombinant human melanocortin-4 receptor (hMCR-4) in membrane homogenates of HEK-293 cells (human, UniProt P32245 1-332).
T3 construct: whole, on cells; Used as membrane homogenates, not intact cells; also called MC-4
T3 sequence (P32245 whole entry): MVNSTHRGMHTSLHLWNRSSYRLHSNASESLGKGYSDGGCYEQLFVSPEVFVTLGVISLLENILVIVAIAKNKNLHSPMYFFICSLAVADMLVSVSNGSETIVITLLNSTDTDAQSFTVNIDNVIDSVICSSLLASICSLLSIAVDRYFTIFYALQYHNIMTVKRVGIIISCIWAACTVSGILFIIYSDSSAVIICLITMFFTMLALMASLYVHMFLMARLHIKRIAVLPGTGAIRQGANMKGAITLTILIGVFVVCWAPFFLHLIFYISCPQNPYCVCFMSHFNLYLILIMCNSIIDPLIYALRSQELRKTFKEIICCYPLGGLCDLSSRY
As to the kind of experiment: competitive inhibition of [I125]-NDP-alpha-MSH, hMCR-4 HEK-293 membranes. On the procedure:
as §1, §2

Assay [4] addresses T2, human melanocortin-1 receptor (hMCR-1) …. As to the kind of experiment: cell-based or functional assay. The source holds these as a separate data set.
Assay [5] has the same target. The experiment in a line: cell-based or functional assay. The source holds these as a separate data set.
Assay [6] shares this target. As to the kind of experiment: cell-based or functional assay. This is another data set of the same source.
Assay [7] has the same target. The experiment in a line: cell-based or functional assay. The source holds these as a separate data set.
Assay [8] has the same target. The experiment in a line: cell-based or functional assay. This is another data set of the same source.
Assay [9] shares this target. As to the kind of experiment: cell-based or functional assay. This is another data set of the same source.
Assay [10] has the same target. As to the kind of experiment: cell-based or functional assay. This is another data set of the same source.
Assay [11] shares this target. As to the kind of experiment: cell-based or functional assay. The source holds these as a separate data set.
Assay [12] has the same target. The experiment in a line: cell-based or functional assay. This is another data set of the same source.
Assay [13] has the same target. As to the kind of experiment: cell-based or functional assay. The source holds these as a separate data set.
For assay [14] the target is unchanged. As to the kind of experiment: cell-based or functional assay. This is another data set of the same source.
The target is the same in assay [15]. As to the kind of experiment: cell-based or functional assay. This is another data set of the same source.

T1 sequence (Q01726 whole entry): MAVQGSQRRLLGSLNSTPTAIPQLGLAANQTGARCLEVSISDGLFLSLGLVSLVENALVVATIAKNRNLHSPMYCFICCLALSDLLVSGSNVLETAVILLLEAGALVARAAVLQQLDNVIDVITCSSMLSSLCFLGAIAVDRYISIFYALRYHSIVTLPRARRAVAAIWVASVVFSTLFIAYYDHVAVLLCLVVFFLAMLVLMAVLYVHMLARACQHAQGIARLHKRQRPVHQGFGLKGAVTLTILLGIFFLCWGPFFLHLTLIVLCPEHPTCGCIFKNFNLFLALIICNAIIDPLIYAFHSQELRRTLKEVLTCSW
T2 sequence (Q01726 whole entry): as above

B1: Ac-Nle-Ala-His-D-Phe-Arg-Ala-Trp-OH (peptide)
peptide: Ac-[Nle]AH[dF]RAW-OH
SMILES: CCCC[C@H](NC(C)=O)C(=O)N[C@@H](C)C(=O)N[C@@H](Cc1c[nH]cn1)C(=O)N[C@H](Cc1ccccc1)C(=O)N[C@@H](CCCNC(=N)N)C(=O)N[C@@H](C)C(=O)N[C@@H](Cc1c[nH]c2ccccc12)C(=O)O
notes: synthetic linear peptide
On to B1, for which the Ki in assay [1] was determined as 6 nM; in [3], 7420 nM. The “MC-1 EC50 (average; cAMP HBL)” value in [2] was found to be 0.4 nM.

B2: Ac-Nle-Ala-His-D-Phe-Arg-Ala-Trp-NH2 (peptide)
peptide: Ac-[Nle]AH[dF]RAW-NH2
SMILES: CCCC[C@H](NC(C)=O)C(=O)N[C@@H](C)C(=O)N[C@@H](Cc1c[nH]cn1)C(=O)N[C@H](Cc1ccccc1)C(=O)N[C@@H](CCCNC(=N)N)C(=O)N[C@@H](C)C(=O)N[C@@H](Cc1c[nH]c2ccccc12)C(N)=O
notes: synthetic linear peptide
On to B2, for which the “MC-1 EC50 (average; cAMP HBL)” value in [4] is 0.02 nM. Besides, the inhibition constant (Ki) in assay [1] amounted to 0.2 nM; in assay [3], 1740 nM.

B3: Ac-Nle-Ala-His-D-Phe-Arg-Pro-Trp-NH2 (peptide)
peptide: Ac-[Nle]AH[dF]RPW-NH2
SMILES: CCCC[C@H](NC(C)=O)C(=O)N[C@@H](C)C(=O)N[C@@H](Cc1c[nH]cn1)C(=O)N[C@H](Cc1ccccc1)C(=O)N[C@@H](CCCNC(=N)N)C(=O)N1CCC[C@H]1C(=O)N[C@@H](Cc1c[nH]c2ccccc12)C(N)=O
notes: synthetic linear peptide
As to B3, the “MC-1 EC50 (average; cAMP HBL)” value in assay [5] worked out at 9 nM. For the same molecule, the Ki came to 185 nM in assay [1] and 20 nM in [3].

B4: Ac-Nle-Ala-His-D-Phe-Ala-Ala-Trp-NH2 (peptide)
peptide: Ac-[Nle]AH[dF]AAW-NH2
SMILES: CCCC[C@H](NC(C)=O)C(=O)N[C@@H](C)C(=O)N[C@@H](Cc1c[nH]cn1)C(=O)N[C@H](Cc1ccccc1)C(=O)N[C@@H](C)C(=O)N[C@@H](C)C(=O)N[C@@H](Cc1c[nH]c2ccccc12)C(N)=O
notes: synthetic linear peptide
In the case of B4, the “MC-1 EC50 (average; cAMP HBL)” value in [6] is 4 nM. Besides, the inhibition constant Ki in [1] was 43 nM; in assay [3], 10000 nM.

B5: Ac-Nle-Ala-Ala-D-Phe-Arg-Ala-Trp-NH2 (peptide)
peptide: Ac-[Nle]AA[dF]RAW-NH2
SMILES: CCCC[C@H](NC(C)=O)C(=O)N[C@@H](C)C(=O)N[C@@H](C)C(=O)N[C@H](Cc1ccccc1)C(=O)N[C@@H](CCCNC(=N)N)C(=O)N[C@@H](C)C(=O)N[C@@H](Cc1c[nH]c2ccccc12)C(N)=O
notes: synthetic linear peptide
Turning to B5, the Ki in assay [1] turned out to be 195 nM; in assay [3], 10000 nM. Further, the “MC-1 EC50 (average; cAMP HBL)” value in assay [7] amounted to 8 nM.

B6: Ac-Nle-Ala-Arg-D-Phe-Arg-Ala-Trp-NH2 (peptide)
peptide: Ac-[Nle]AR[dF]RAW-NH2
SMILES: CCCC[C@H](NC(C)=O)C(=O)N[C@@H](C)C(=O)N[C@@H](CCCNC(=N)N)C(=O)N[C@H](Cc1ccccc1)C(=O)N[C@@H](CCCNC(=N)N)C(=O)N[C@@H](C)C(=O)N[C@@H](Cc1c[nH]c2ccccc12)C(N)=O
notes: synthetic linear peptide
In the case of B6, the “MC-1 EC50 (average; cAMP HBL)” value in assay [8] worked out at 0.04 nM. Besides, the inhibitory constant (Ki) was 0.45 nM in assay [1] and 1180 nM in assay [3].

B7: Ac-Nle-Ala-His-D-Phe-Arg-D-Pro-D-Trp-NH2 (peptide)
peptide: Ac-[Nle]AH[dF]R[dP][dW]-NH2
SMILES: CCCC[C@H](NC(C)=O)C(=O)N[C@@H](C)C(=O)N[C@@H](Cc1c[nH]cn1)C(=O)N[C@H](Cc1ccccc1)C(=O)N[C@@H](CCCNC(=N)N)C(=O)N1CCC[C@@H]1C(=O)N[C@H](Cc1c[nH]c2ccccc12)C(N)=O
Consider B7, for which the “MC-1 EC50 (average; cAMP HBL)” value in assay [9] stood at 2 nM.

B8: Ac-Nle-D-Phe-Arg-Ala-Trp-NH2 (peptide)
peptide: Ac-[Nle][dF]RAW-NH2
SMILES: CCCC[C@H](NC(C)=O)C(=O)N[C@H](Cc1ccccc1)C(=O)N[C@@H](CCCNC(=N)N)C(=O)N[C@@H](C)C(=O)N[C@@H](Cc1c[nH]c2ccccc12)C(N)=O
Turning to B8, the “MC-1 EC50 (average; cAMP HBL)” value in assay [10] amounted to 402 nM.

B9: Ac-Nle-His-Phe-Arg-Ala-Trp-NH2 (peptide)
peptide: Ac-[Nle]HFRAW-NH2
SMILES: CCCC[C@H](NC(C)=O)C(=O)N[C@@H](Cc1c[nH]cn1)C(=O)N[C@@H](Cc1ccccc1)C(=O)N[C@@H](CCCNC(=N)N)C(=O)N[C@@H](C)C(=O)N[C@@H](Cc1c[nH]c2ccccc12)C(N)=O
notes: synthetic linear peptide
On to B9, for which the figures for the inhibitory constant (Ki) in assay [1] and in assay [3] were 5920 nM and 10000 nM, respectively.

B10: Ac-Nle-Ala-His-D-Phe-Arg-Ala-D-Trp-NH2 (peptide)
peptide: Ac-[Nle]AH[dF]RA[dW]-NH2
SMILES: CCCC[C@H](NC(C)=O)C(=O)N[C@@H](C)C(=O)N[C@@H](Cc1c[nH]cn1)C(=O)N[C@H](Cc1ccccc1)C(=O)N[C@@H](CCCNC(=N)N)C(=O)N[C@@H](C)C(=O)N[C@H](Cc1c[nH]c2ccccc12)C(N)=O
Turning to B10, in assay [11], the “MC-1 EC50 (average; cAMP HBL)” value stood at 0.6 nM.

B11: Ac-Nle-Ala-His-D-Phe-Arg-D-Pro-Trp-NH2 (peptide)
peptide: Ac-[Nle]AH[dF]R[dP]W-NH2
SMILES: CCCC[C@H](NC(C)=O)C(=O)N[C@@H](C)C(=O)N[C@@H](Cc1c[nH]cn1)C(=O)N[C@H](Cc1ccccc1)C(=O)N[C@@H](CCCNC(=N)N)C(=O)N1CCC[C@@H]1C(=O)N[C@@H](Cc1c[nH]c2ccccc12)C(N)=O
For B11, in assay [12], the “MC-1 EC50 (average; cAMP HBL)” value came out at 1 nM.

B12: Ac-Nle-Ala-His-D-Phe-Arg-Pro-D-Trp-NH2 (peptide)
peptide: Ac-[Nle]AH[dF]RP[dW]-NH2
SMILES: CCCC[C@H](NC(C)=O)C(=O)N[C@@H](C)C(=O)N[C@@H](Cc1c[nH]cn1)C(=O)N[C@H](Cc1ccccc1)C(=O)N[C@@H](CCCNC(=N)N)C(=O)N1CCC[C@H]1C(=O)N[C@H](Cc1c[nH]c2ccccc12)C(N)=O
On to B12, for which, in [13], the “MC-1 EC50 (average; cAMP HBL)” value is 0.17 nM.

B13: Ac-Nle-Ala-D-Phe-Arg-Ala-Trp-NH2 (peptide)
peptide: Ac-[Nle]A[dF]RAW-NH2
SMILES: CCCC[C@H](NC(C)=O)C(=O)N[C@@H](C)C(=O)N[C@H](Cc1ccccc1)C(=O)N[C@@H](CCCNC(=N)N)C(=O)N[C@@H](C)C(=O)N[C@@H](Cc1c[nH]c2ccccc12)C(N)=O
notes: synthetic linear peptide
Take B13: the results for the inhibition constant Ki in [1] and in assay [3] were 6680 nM and 10000 nM, respectively.

B14: Ac-Nle-Ala-His-Phe-Arg-Ala-Trp-NH2 (peptide)
peptide: Ac-[Nle]AHFRAW-NH2
SMILES: CCCC[C@H](NC(C)=O)C(=O)N[C@@H](C)C(=O)N[C@@H](Cc1c[nH]cn1)C(=O)N[C@@H](Cc1ccccc1)C(=O)N[C@@H](CCCNC(=N)N)C(=O)N[C@@H](C)C(=O)N[C@@H](Cc1c[nH]c2ccccc12)C(N)=O
notes: synthetic linear peptide
In the case of B14, in assay [14], the “MC-1 EC50 (average; cAMP HBL)” value stood at 4 nM. The inhibitory constant (Ki) in assay [1] is 85 nM; in [3], 10000 nM.

B15: Ac-Nle-Ala-His-Phe-Arg-Gly-Trp-NH2 (peptide)
peptide: Ac-[Nle]AHFRGW-NH2
SMILES: CCCC[C@H](NC(C)=O)C(=O)N[C@@H](C)C(=O)N[C@@H](Cc1c[nH]cn1)C(=O)N[C@@H](Cc1ccccc1)C(=O)N[C@@H](CCCNC(=N)N)C(=O)NCC(=O)N[C@@H](Cc1c[nH]c2ccccc12)C(N)=O
notes: synthetic linear peptide
In the case of B15, the “MC-1 EC50 (average; cAMP HBL)” value in assay [15] came to 21 nM. The inhibition constant Ki was 340 nM in assay [1] and 10000 nM in assay [3].
